B1: Pistol ribozyme (parent)
chain: GGGUCGUUGUUCCAUAAUCGCGUGGAUAUGGCACGCAAGUUUCUACCGGGCACCGUAAAUGUCCGACUGGAGCCGUUCGGGCGGCUAUAAACAGACCUCAGGCCCGAAGCGUGGCGGCACCUGCCGCCGGUGGUAAAAAAGAUCGGAAGAGCACACGUCU

Variants of: B1
Assay: aptazyme ON/OFF ratio, guanine; higher = stronger switching; co-transcriptional cleavage with and without guanine

Variant	aptazyme ON/OFF ratio
GGGUCGGUUAACGAUAAUCGCGUGGAUAUGGCACGCAAGUUUCUACCGGGCACCGUAAAUGUCCGACUGGAGCCGUUCGGGCGGCUAUAAACAGACCUCAGGCCCGAAGCGUGGCGGCACCUGCCGCCGGUGGUAAAAAAGAUCGGAAGAGCACACGUCU	1.18
GGGUCGGUUAACUAUAAUCGCGUGGAUAUGGCACGCAAGUUUCUACCGGGCACCGUAAAUGUCCGACUGGAGCCGUUCGGGCGGCUAUAAACAGACCUCAGGCCCGAAGCGUGGCGGCACCUGCCGCCGGUGGUAAAAAAGAUCGGAAGAGCACACGUCU	1.39
GGGUCGGUUAACAAUAAUCGCGUGGAUAUGGCACGCAAGUUUCUACCGGGCACCGUAAAUGUCCGACUGGAGCCGUUCGGGCGGCUAUAAACAGACCUCAGGCCCGAAGCGUGGCGGCACCUGCCGCCGGUGGUAAAAAAGAUCGGAAGAGCACACGUCU	1.28
GGGUCGGUUAAGUAUAAUCGCGUGGAUAUGGCACGCAAGUUUCUACCGGGCACCGUAAAUGUCCGACUGGAGCCGUUCGGGCGGCUAUAAACAGACCUCAGGCCCGAAGCGUGGCGGCACCUGCCGCCGGUGGUAAAAAAGAUCGGAAGAGCACACGUCU	1.42
GGGUCGGUUAAGGAUAAUCGCGUGGAUAUGGCACGCAAGUUUCUACCGGGCACCGUAAAUGUCCGACUGGAGCCGUUCGGGCGGCUAUAAACAGACCUCAGGCCCGAAGCGUGGCGGCACCUGCCGCCGGUGGUAAAAAAGAUCGGAAGAGCACACGUCU	1.11
GGGUCGGUUAAGAAUAAUCGCGUGGAUAUGGCACGCAAGUUUCUACCGGGCACCGUAAAUGUCCGACUGGAGCCGUUCGGGCGGCUAUAAACAGACCUCAGGCCCGAAGCGUGGCGGCACCUGCCGCCGGUGGUAAAAAAGAUCGGAAGAGCACACGUCU	1.13
GGGUCGGUUAUUUAUAAUCGCGUGGAUAUGGCACGCAAGUUUCUACCGGGCACCGUAAAUGUCCGACUGGAGCCGUUCGGGCGGCUAUAAACAGACCUCAGGCCCGAAGCGUGGCGGCACCUGCCGCCGGUGGUAAAAAAGAUCGGAAGAGCACACGUCU	1.15
GGGUCGGUUAUUGAUAAUCGCGUGGAUAUGGCACGCAAGUUUCUACCGGGCACCGUAAAUGUCCGACUGGAGCCGUUCGGGCGGCUAUAAACAGACCUCAGGCCCGAAGCGUGGCGGCACCUGCCGCCGGUGGUAAAAAAGAUCGGAAGAGCACACGUCU	1.14
GGGUCGGUUAUUAAUAAUCGCGUGGAUAUGGCACGCAAGUUUCUACCGGGCACCGUAAAUGUCCGACUGGAGCCGUUCGGGCGGCUAUAAACAGACCUCAGGCCCGAAGCGUGGCGGCACCUGCCGCCGGUGGUAAAAAAGAUCGGAAGAGCACACGUCU	1.06
GGGUCGGUUAAAGAUAAUCGCGUGGAUAUGGCACGCAAGUUUCUACCGGGCACCGUAAAUGUCCGACUGGAGCCGUUCGGGCGGCUAUAAACAGACCUCAGGCCCGAAGCGUGGCGGCACCUGCCGCCGGUGGUAAAAAAGAUCGGAAGAGCACACGUCU	1.26
GGGUCGGUUAAAUAUAAUCGCGUGGAUAUGGCACGCAAGUUUCUACCGGGCACCGUAAAUGUCCGACUGGAGCCGUUCGGGCGGCUAUAAACAGACCUCAGGCCCGAAGCGUGGCGGCACCUGCCGCCGGUGGUAAAAAAGAUCGGAAGAGCACACGUCU	1.38
GGGUCGGUUAAAAAUAAUCGCGUGGAUAUGGCACGCAAGUUUCUACCGGGCACCGUAAAUGUCCGACUGGAGCCGUUCGGGCGGCUAUAAACAGACCUCAGGCCCGAAGCGUGGCGGCACCUGCCGCCGGUGGUAAAAAAGAUCGGAAGAGCACACGUCU	1.17
GGGUCGGUUAACCAUAAUCGCGUGGAUAUGGCACGCAAGUUUCUACCGGGCACCGUAAAUGUCCGACUGGAGCCGUUCGGGCGGCUAUAAACAGACCUCAGGCCCGAAGCGUGGCGGCACCUGCCGCCGGUGGUAAAAAAGAUCGGAAGAGCACACGUCU	3.18
GGGUCGGUUACCCAUAAUCGCGUGGAUAUGGCACGCAAGUUUCUACCGGGCACCGUAAAUGUCCGACUGGAGCCGUUCGGGCGGCUAUAAACAGACCUCAGGCCCGAAGCGUGGCGGCACCUGCCGCCGGUGGUAAAAAAGAUCGGAAGAGCACACGUCU	1.17
GGGUCGGUUAAUAAUAAUCGCGUGGAUAUGGCACGCAAGUUUCUACCGGGCACCGUAAAUGUCCGACUGGAGCCGUUCGGGCGGCUAUAAACAGACCUCAGGCCCGAAGCGUGGCGGCACCUGCCGCCGGUGGUAAAAAAGAUCGGAAGAGCACACGUCU	0.962
GGGUCGGUUAAUGAUAAUCGCGUGGAUAUGGCACGCAAGUUUCUACCGGGCACCGUAAAUGUCCGACUGGAGCCGUUCGGGCGGCUAUAAACAGACCUCAGGCCCGAAGCGUGGCGGCACCUGCCGCCGGUGGUAAAAAAGAUCGGAAGAGCACACGUCU	1.29
GGGUCGGUUAAUUAUAAUCGCGUGGAUAUGGCACGCAAGUUUCUACCGGGCACCGUAAAUGUCCGACUGGAGCCGUUCGGGCGGCUAUAAACAGACCUCAGGCCCGAAGCGUGGCGGCACCUGCCGCCGGUGGUAAAAAAGAUCGGAAGAGCACACGUCU	1.28
GGGUCGGUUAAACAUAAUCGCGUGGAUAUGGCACGCAAGUUUCUACCGGGCACCGUAAAUGUCCGACUGGAGCCGUUCGGGCGGCUAUAAACAGACCUCAGGCCCGAAGCGUGGCGGCACCUGCCGCCGGUGGUAAAAAAGAUCGGAAGAGCACACGUCU	1.3

Variant	aptazyme ON/OFF ratio
GGGUCGGUUAAGCAUAAUCGCGUGGAUAUGGCACGCAAGUUUCUACCGGGCACCGUAAAUGUCCGACUGGAGCCGUUCGGGCGGCUAUAAACAGACCUCAGGCCCGAAGCGUGGCGGCACCUGCCGCCGGUGGUAAAAAAGAUCGGAAGAGCACACGUCU	1.41
GGGUCGGUUAAUCAUAAUCGCGUGGAUAUGGCACGCAAGUUUCUACCGGGCACCGUAAAUGUCCGACUGGAGCCGUUCGGGCGGCUAUAAACAGACCUCAGGCCCGAAGCGUGGCGGCACCUGCCGCCGGUGGUAAAAAAGAUCGGAAGAGCACACGUCU	1.54
GGGUCGGUUAUGAAUAAUCGCGUGGAUAUGGCACGCAAGUUUCUACCGGGCACCGUAAAUGUCCGACUGGAGCCGUUCGGGCGGCUAUAAACAGACCUCAGGCCCGAAGCGUGGCGGCACCUGCCGCCGGUGGUAAAAAAGAUCGGAAGAGCACACGUCU	1.09
GGGUCGGUUAUGUAUAAUCGCGUGGAUAUGGCACGCAAGUUUCUACCGGGCACCGUAAAUGUCCGACUGGAGCCGUUCGGGCGGCUAUAAACAGACCUCAGGCCCGAAGCGUGGCGGCACCUGCCGCCGGUGGUAAAAAAGAUCGGAAGAGCACACGUCU	1.4
GGGUCGGUUAUGGAUAAUCGCGUGGAUAUGGCACGCAAGUUUCUACCGGGCACCGUAAAUGUCCGACUGGAGCCGUUCGGGCGGCUAUAAACAGACCUCAGGCCCGAAGCGUGGCGGCACCUGCCGCCGGUGGUAAAAAAGAUCGGAAGAGCACACGUCU	1.24
GGGUCGGUUAUCGAUAAUCGCGUGGAUAUGGCACGCAAGUUUCUACCGGGCACCGUAAAUGUCCGACUGGAGCCGUUCGGGCGGCUAUAAACAGACCUCAGGCCCGAAGCGUGGCGGCACCUGCCGCCGGUGGUAAAAAAGAUCGGAAGAGCACACGUCU	1.18
GGGUCGGUUAUCAAUAAUCGCGUGGAUAUGGCACGCAAGUUUCUACCGGGCACCGUAAAUGUCCGACUGGAGCCGUUCGGGCGGCUAUAAACAGACCUCAGGCCCGAAGCGUGGCGGCACCUGCCGCCGGUGGUAAAAAAGAUCGGAAGAGCACACGUCU	1.44
GGGUCGGUUAUCUAUAAUCGCGUGGAUAUGGCACGCAAGUUUCUACCGGGCACCGUAAAUGUCCGACUGGAGCCGUUCGGGCGGCUAUAAACAGACCUCAGGCCCGAAGCGUGGCGGCACCUGCCGCCGGUGGUAAAAAAGAUCGGAAGAGCACACGUCU	1.35
GGGUCGGUUACGGAUAAUCGCGUGGAUAUGGCACGCAAGUUUCUACCGGGCACCGUAAAUGUCCGACUGGAGCCGUUCGGGCGGCUAUAAACAGACCUCAGGCCCGAAGCGUGGCGGCACCUGCCGCCGGUGGUAAAAAAGAUCGGAAGAGCACACGUCU	1.04
GGGUCGGUUACGAAUAAUCGCGUGGAUAUGGCACGCAAGUUUCUACCGGGCACCGUAAAUGUCCGACUGGAGCCGUUCGGGCGGCUAUAAACAGACCUCAGGCCCGAAGCGUGGCGGCACCUGCCGCCGGUGGUAAAAAAGAUCGGAAGAGCACACGUCU	1.22
GGGUCGGUUACGUAUAAUCGCGUGGAUAUGGCACGCAAGUUUCUACCGGGCACCGUAAAUGUCCGACUGGAGCCGUUCGGGCGGCUAUAAACAGACCUCAGGCCCGAAGCGUGGCGGCACCUGCCGCCGGUGGUAAAAAAGAUCGGAAGAGCACACGUCU	1.27
GGGUCGGUUACAAAUAAUCGCGUGGAUAUGGCACGCAAGUUUCUACCGGGCACCGUAAAUGUCCGACUGGAGCCGUUCGGGCGGCUAUAAACAGACCUCAGGCCCGAAGCGUGGCGGCACCUGCCGCCGGUGGUAAAAAAGAUCGGAAGAGCACACGUCU	1.24
GGGUCGGUUACAUAUAAUCGCGUGGAUAUGGCACGCAAGUUUCUACCGGGCACCGUAAAUGUCCGACUGGAGCCGUUCGGGCGGCUAUAAACAGACCUCAGGCCCGAAGCGUGGCGGCACCUGCCGCCGGUGGUAAAAAAGAUCGGAAGAGCACACGUCU	1.46
GGGUCGGUUACAGAUAAUCGCGUGGAUAUGGCACGCAAGUUUCUACCGGGCACCGUAAAUGUCCGACUGGAGCCGUUCGGGCGGCUAUAAACAGACCUCAGGCCCGAAGCGUGGCGGCACCUGCCGCCGGUGGUAAAAAAGAUCGGAAGAGCACACGUCU	1.21
GGGUCGGUUACGCAUAAUCGCGUGGAUAUGGCACGCAAGUUUCUACCGGGCACCGUAAAUGUCCGACUGGAGCCGUUCGGGCGGCUAUAAACAGACCUCAGGCCCGAAGCGUGGCGGCACCUGCCGCCGGUGGUAAAAAAGAUCGGAAGAGCACACGUCU	1.5
GGGUCGGUUACACAUAAUCGCGUGGAUAUGGCACGCAAGUUUCUACCGGGCACCGUAAAUGUCCGACUGGAGCCGUUCGGGCGGCUAUAAACAGACCUCAGGCCCGAAGCGUGGCGGCACCUGCCGCCGGUGGUAAAAAAGAUCGGAAGAGCACACGUCU	1.56
GGGUCGGUUAUUCAUAAUCGCGUGGAUAUGGCACGCAAGUUUCUACCGGGCACCGUAAAUGUCCGACUGGAGCCGUUCGGGCGGCUAUAAACAGACCUCAGGCCCGAAGCGUGGCGGCACCUGCCGCCGGUGGUAAAAAAGAUCGGAAGAGCACACGUCU	1.54
GGGUCGGUUAUGCAUAAUCGCGUGGAUAUGGCACGCAAGUUUCUACCGGGCACCGUAAAUGUCCGACUGGAGCCGUUCGGGCGGCUAUAAACAGACCUCAGGCCCGAAGCGUGGCGGCACCUGCCGCCGGUGGUAAAAAAGAUCGGAAGAGCACACGUCU	1.59

Reference: the RNAGym collection of RNA variant scans (doi:10.1021/acssynbio.7b00057)
